From article PMC6859858

What was measured:
[1] = molecular target: T1, CPSF-160;WDR33;CPSF-30;Fip1 (human;human;human;human, UniProt Q10570;Q9C0J8;O95639;Q6UN15 1-1443;1-425;1-269;159-200, |||); test: competition fluorescence polarization
Target sequence in this assay (Q10570 whole entry, chain 1 of 3): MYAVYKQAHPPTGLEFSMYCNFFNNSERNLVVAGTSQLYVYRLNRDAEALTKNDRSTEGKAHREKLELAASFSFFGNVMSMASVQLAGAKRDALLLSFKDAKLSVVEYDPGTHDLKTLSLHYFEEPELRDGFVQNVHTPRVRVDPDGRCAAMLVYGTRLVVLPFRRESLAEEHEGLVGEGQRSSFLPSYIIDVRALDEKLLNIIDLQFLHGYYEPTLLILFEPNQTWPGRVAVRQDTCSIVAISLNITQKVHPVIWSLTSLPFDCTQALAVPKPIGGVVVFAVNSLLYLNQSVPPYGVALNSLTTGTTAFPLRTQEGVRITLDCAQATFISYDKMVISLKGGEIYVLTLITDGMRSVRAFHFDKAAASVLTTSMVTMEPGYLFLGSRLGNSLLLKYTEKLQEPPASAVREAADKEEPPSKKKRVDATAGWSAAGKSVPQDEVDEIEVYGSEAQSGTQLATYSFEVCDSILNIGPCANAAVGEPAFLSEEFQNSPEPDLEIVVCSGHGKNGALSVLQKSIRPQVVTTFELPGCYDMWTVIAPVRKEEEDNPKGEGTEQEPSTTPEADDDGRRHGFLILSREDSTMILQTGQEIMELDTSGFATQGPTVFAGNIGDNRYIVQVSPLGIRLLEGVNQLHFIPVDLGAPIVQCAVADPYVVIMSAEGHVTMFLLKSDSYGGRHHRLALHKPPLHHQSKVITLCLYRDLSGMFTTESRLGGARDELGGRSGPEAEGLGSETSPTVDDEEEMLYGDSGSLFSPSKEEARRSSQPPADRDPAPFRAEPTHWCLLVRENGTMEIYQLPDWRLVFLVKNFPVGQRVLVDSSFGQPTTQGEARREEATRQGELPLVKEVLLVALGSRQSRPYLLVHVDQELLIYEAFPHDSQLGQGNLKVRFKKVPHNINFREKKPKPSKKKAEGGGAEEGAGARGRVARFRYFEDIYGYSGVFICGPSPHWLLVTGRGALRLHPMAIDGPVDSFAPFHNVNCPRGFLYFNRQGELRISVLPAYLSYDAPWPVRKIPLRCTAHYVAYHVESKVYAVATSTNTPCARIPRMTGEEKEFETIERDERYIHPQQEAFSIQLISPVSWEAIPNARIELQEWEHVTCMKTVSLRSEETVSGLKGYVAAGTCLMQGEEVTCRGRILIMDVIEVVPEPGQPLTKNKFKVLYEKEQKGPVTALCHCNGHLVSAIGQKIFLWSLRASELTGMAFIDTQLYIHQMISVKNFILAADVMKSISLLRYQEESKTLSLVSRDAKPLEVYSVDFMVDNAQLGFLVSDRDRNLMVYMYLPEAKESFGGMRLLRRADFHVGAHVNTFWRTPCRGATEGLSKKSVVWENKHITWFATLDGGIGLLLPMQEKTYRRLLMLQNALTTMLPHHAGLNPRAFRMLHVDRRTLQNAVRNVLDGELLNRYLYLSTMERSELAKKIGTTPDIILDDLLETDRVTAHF
Target sequence in this assay (Q9C0J8 1-425, chain 2 of 3): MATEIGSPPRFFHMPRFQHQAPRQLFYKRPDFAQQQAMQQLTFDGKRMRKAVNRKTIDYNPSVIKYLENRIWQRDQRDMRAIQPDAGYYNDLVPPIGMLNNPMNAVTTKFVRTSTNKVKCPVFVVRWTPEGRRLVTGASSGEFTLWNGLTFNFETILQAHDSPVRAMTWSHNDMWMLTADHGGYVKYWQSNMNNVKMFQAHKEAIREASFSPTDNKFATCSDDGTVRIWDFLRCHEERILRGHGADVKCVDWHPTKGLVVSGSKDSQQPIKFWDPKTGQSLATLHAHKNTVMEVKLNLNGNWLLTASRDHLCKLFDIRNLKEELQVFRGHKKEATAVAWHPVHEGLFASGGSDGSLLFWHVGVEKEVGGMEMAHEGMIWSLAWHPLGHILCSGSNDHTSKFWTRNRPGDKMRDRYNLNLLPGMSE
Target sequence in this assay (O95639 whole entry, chain 3 of 3): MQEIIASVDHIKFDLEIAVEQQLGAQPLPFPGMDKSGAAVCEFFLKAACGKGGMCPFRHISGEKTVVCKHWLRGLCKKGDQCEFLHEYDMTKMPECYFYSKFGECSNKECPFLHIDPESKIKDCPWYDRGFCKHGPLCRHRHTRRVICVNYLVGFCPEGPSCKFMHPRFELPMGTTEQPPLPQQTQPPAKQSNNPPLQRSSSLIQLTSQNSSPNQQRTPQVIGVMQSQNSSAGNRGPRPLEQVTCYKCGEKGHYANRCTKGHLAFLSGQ

[2] = molecular target: T1, CPSF-160;WDR33;CPSF-30;Fip1; test: competition fluorescence polarization; remark: listed apart in the source
Target sequence in this assay (Q10570 whole entry, chain 1 of 4, one chain of several): as the sequence (Q10570 whole entry, chain 1 of 3) above
Target sequence in this assay (Q9C0J8 1-425, chain 2 of 4, one chain of several): as the sequence (Q9C0J8 1-425, chain 2 of 3) above
Target sequence in this assay (O95639 whole entry, chain 3 of 4, one chain of several): as the sequence (O95639 whole entry, chain 3 of 3) above

[3] = molecular target: T2, Fip1 (human, UniProt Q6UN15 159-200); test: fluorescence polarization
T2 chain: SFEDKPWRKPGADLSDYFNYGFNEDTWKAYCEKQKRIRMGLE

[4] = molecular target: CPSF-160;WDR33;CPSF-30 (human;human;human, UniProt Q10570;Q9C0J8;O95639 1-1443;1-425;1-269, ||); test: fluorescence polarization
[5] = molecular target: T1, CPSF-160;WDR33;CPSF-30;Fip1; test: fluorescence polarization
Target sequence in this assay (Q10570 whole entry, chain 1 of 4, one chain of several): as the sequence (Q10570 whole entry, chain 1 of 3) above
Target sequence in this assay (Q9C0J8 1-425, chain 2 of 4, one chain of several): as the sequence (Q9C0J8 1-425, chain 2 of 3) above
Target sequence in this assay (O95639 whole entry, chain 3 of 4, one chain of several): as the sequence (O95639 whole entry, chain 3 of 3) above

[6] = molecular target: CPSF-160;WDR33;CPSF-30 F84A;Fip1 (human;human;human;human, UniProt Q10570;Q9C0J8;O95639;Q6UN15 1-1443;1-425;1-269;159-200, ||F84A|); test: fluorescence polarization
[7] = molecular target: CPSF-160;WDR33;CPSF-30 H70A;Fip1 (human;human;human;human, UniProt Q10570;Q9C0J8;O95639;Q6UN15 1-1443;1-425;1-269;159-200, ||H70A|); test: fluorescence polarization
[8] = molecular target: CPSF-160;WDR33;CPSF-30 F112A;Fip1 (human;human;human;human, UniProt Q10570;Q9C0J8;O95639;Q6UN15 1-1443;1-425;1-269;159-200, ||F112A|); test: fluorescence polarization
[9] = molecular target: CPSF-160;WDR33;CPSF-30 R73A;Fip1 (human;human;human;human, UniProt Q10570;Q9C0J8;O95639;Q6UN15 1-1443;1-425;1-269;159-200, ||R73A|); test: fluorescence polarization
[10] = molecular target: T1, CPSF-160;WDR33;CPSF-30;Fip1; test: fluorescence polarization; remark: listed apart in the source
Target sequence in this assay (Q10570 whole entry, chain 1 of 4, one chain of several): as the sequence (Q10570 whole entry, chain 1 of 3) above
Target sequence in this assay (Q9C0J8 1-425, chain 2 of 4, one chain of several): as the sequence (Q9C0J8 1-425, chain 2 of 3) above
Target sequence in this assay (O95639 whole entry, chain 3 of 4, one chain of several): as the sequence (O95639 whole entry, chain 3 of 3) above

[11] = molecular target: T1, CPSF-160;WDR33;CPSF-30;Fip1; test: fluorescence polarization; remark: listed apart in the source
Target sequence in this assay (Q10570 whole entry, chain 1 of 3): as the sequence (Q10570 whole entry, chain 1 of 3) above
Target sequence in this assay (Q9C0J8 1-425, chain 2 of 3): as the sequence (Q9C0J8 1-425, chain 2 of 3) above
Target sequence in this assay (O95639 whole entry, chain 3 of 3): as the sequence (O95639 whole entry, chain 3 of 3) above

B1: 7-mer AAUAAAC, unlabeled (ssRNA)
RNA: AAUAAAC
B1 was tested, and the binding signal [1] was 35 fold higher Kd than 11-mer.

B2: 8-mer AAUAAA, unlabeled (ssRNA)
RNA: CAAUAAAC
B2 was tested, and the Kd [2] was 57000 ± 18000 pM.

B3: 17-mer AAUAAA PAS (ssRNA)
RNA: AACCUCCAAUAAACAAC
With B3 the binding result [3] was “no binding”, the Kd [4] was 250 ± 50 pM and the Kd [5] was 280 ± 70 pM. The binding signal [6] was 8 fold higher Kd than wild type, the binding signal [7] was 90 fold higher Kd than wild type and the binding signal [8] was 140 fold higher Kd than wild type. For the same binder, the binding signal [9] was 17 fold higher Kd than wild type, the Kd [10] was 190 ± 30 pM and the binding signal [11] was 3 fold higher Kd than maximal binding.

B4: 11-mer AAUAAA PAS, FAM (ssRNA)
RNA: CAAUAAACAAC
For B4, the Kd [5] was 320 ± 40 pM.

B5: 6-mer AAUAAA, FAM (ssRNA)
RNA: AAUAAA
modifications: 3' phosphate linking the FAM
B5 gave a Kd [5] of 8050 ± 450 pM.
